In patent publication US10941182 (Amgen, dated 2021):
Starred links: 1 amine or outer side, 2 acyl side, 3 side chain; linkers in the order of their positions; H or OH if unused. Non-standard residues stand in square brackets, D forms with d. *: point of attachment. dBip = N[C@H](Cc1ccc(-c2ccccc2)cc1)C(=O)O; Oic = O=C(O)[C@@H]1C[C@@H]2CCCC[C@@H]2N1; Phe(4-Cl) = N[C@@H](Cc1ccc(Cl)cc1)C(=O)O; dPhe(4-Cl) = N[C@H](Cc1ccc(Cl)cc1)C(=O)O; Phe(4-I) = N[C@@H](Cc1ccc(I)cc1)C(=O)O; γGlu = O=C(O)[C@H](CCC(=O)[*:2])N[*:1]; C12 diacid = O=C(O)CCCCCCCCCCC(=O)*; NMeR = CN[C@@H](CCCNC(=N)N)C(=O)O; hArg = N=C(N)NCCCC[C@H](N)C(=O)O; Cha = N[C@@H](CC1CCCCC1)C(=O)O; NMeL = CN[C@@H](CC(C)C)C(=O)O; Nle = CCCC[C@H](N)C(=O)O; AEEA = NCCOCCOCC(=O)O; Aib = CC(C)(N)C(=O)O; Mpa = O=C(O)CCS

T1: human APJ receptor (human, UniProt P35414 1-380)
T1 sequence (looked up): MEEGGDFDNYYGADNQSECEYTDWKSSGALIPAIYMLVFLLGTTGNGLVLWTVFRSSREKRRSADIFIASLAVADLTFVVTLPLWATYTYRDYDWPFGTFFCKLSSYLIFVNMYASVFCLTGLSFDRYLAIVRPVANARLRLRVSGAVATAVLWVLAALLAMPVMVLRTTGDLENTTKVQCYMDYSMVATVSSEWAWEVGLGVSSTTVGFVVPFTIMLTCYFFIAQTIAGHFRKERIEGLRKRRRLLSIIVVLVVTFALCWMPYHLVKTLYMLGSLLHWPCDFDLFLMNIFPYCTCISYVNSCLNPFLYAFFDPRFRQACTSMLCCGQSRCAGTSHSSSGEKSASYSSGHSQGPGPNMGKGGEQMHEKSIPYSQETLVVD

T2: rat APJ receptor (rat, UniProt Q9JHG3 1-377)
T2 sequence (looked up): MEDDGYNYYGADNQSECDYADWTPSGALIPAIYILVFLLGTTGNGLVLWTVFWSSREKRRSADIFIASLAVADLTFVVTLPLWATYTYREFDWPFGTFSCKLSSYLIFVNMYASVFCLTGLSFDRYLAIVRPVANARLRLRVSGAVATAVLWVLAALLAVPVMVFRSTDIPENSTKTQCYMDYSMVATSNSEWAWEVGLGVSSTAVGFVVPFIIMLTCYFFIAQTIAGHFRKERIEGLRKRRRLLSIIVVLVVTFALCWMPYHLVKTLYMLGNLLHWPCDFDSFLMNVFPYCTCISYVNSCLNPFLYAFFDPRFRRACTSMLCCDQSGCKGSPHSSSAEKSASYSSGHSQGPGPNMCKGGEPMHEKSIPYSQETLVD


What was measured:
[1] = target: T1, human APJ receptor; assay: cell-based or functional assay
[2] = target: T2, rat APJ receptor; assay: cell-based or functional assay

| Binder | EC50 Human APJ Receptor [1] | EC50 Rat APJ Receptor [2] |
| --- | --- | --- |
| RLIEDICLPRWGCLWXXQRPRLSHKGPXPF ({Acetyl-NH}RLIEDICLPRWGCLW[Aeea][Aeea]QRP[NMeArg]LSHKGP[Nle]P[4-Cl-F]{COOH}) [SEQ ID NO: 91] | 0.0357 nM | 0.124 nM |
| RLIEDICLPRWGCLWEDDXXQRPRLSHKGPXPF ({Acetyl-NH}RLIEDICLPRWGCLWEDD[Aeea][Aeea]QRP[NMeArg]LSHKGP[Nle]P[4-Cl-F]{COOH}) [SEQ ID NO: 90] | 0.14 nM | 0.633 nM |
| QRPRLSHKGPXPF ({H2}[MerPr](10K mPEG acetamide)Q[hArg]P[NMeArg][aMeLeu]SHKGP[Nle]P[4-Cl-F]{COOH}) [SEQ ID NO: 112] | 2.32 nM | 10.4 nM |
| Ac-RQRP[NMeR][NMeL]SHKGP[Nle]P[Phe(4-Cl)]-OH (SMILES CCCC[C@H](NC(=O)[C@@H]1CCCN1C(=O)CNC(=O)[C@H](CCCCN)NC(=O)[C@H](Cc1c[nH]cn1)NC(=O)[C@H](CO)NC(=O)[C@H](CC(C)C)N(C)C(=O)[C@H](CCCNC(=N)N)N(C)C(=O)[C@@H]1CCCN1C(=O)[C@H](CCCNC(=N)N)NC(=O)[C@H](CCC(N)=O)NC(=O)[C@H](CCCNC(=N)N)NC(C)=O)C(=O)N1CCC[C@H]1C(=O)N[C@@H](Cc1ccc(Cl)cc1)C(=O)O) [SEQ ID NO: 67] | 0.185 nM | 1.4 nM |
| QRPRLSHKGPXPF ({H2}[MerPr](10K mPEG acetamide)QR[aMePro][hArg][aMeLeu]SHKGP[Nle]P[4-Cl-F]{COOH}) [SEQ ID NO: 114] | 0.848 nM | 3.46 nM |
| Ac-QRP[NMeR][Cha]SHKG[Oic][Nle][Aib][Phe(4-Cl)]-OH [SEQ ID NO: 92] | 0.679 nM | 3.23 nM |
| Ac-RQRP[NMeR][Cha]SHKGP[Nle]P[Phe(4-Cl)]-OH (SMILES CCCC[C@H](NC(=O)[C@@H]1CCCN1C(=O)CNC(=O)[C@H](CCCCN)NC(=O)[C@H](Cc1c[nH]cn1)NC(=O)[C@H](CO)NC(=O)[C@H](CC1CCCCC1)NC(=O)[C@H](CCCNC(=N)N)N(C)C(=O)[C@@H]1CCCN1C(=O)[C@H](CCCNC(=N)N)NC(=O)[C@H](CCC(N)=O)NC(=O)[C@H](CCCNC(=N)N)NC(C)=O)C(=O)N1CCC[C@H]1C(=O)N[C@@H](Cc1ccc(Cl)cc1)C(=O)O) [SEQ ID NO: 66] | 0.0405 nM | 0.156 nM |
| QRPRLSHKGPXPF ({H2}[MerPr](10K mPEG acetamide)Q[hArg]P[NMehArg]LSHKGP[Nle]P[4-Cl-F]{COOH}) [SEQ ID NO: 113] | 12.1 nM | 49.3 nM |
| {mPEG 10 kDa acetamide}-[Mpa][dQ][hArg]P[NMeR][Cha]SHKG[Oic][Nle]P[dPhe(4-Cl)]-OH (numbers in words are those of the source; also: N-terminus written {H2}) [SEQ ID NO: 111] | 1100 nM | 777 nM |
| Ac-QR[NMeR]LSHKGP[Nle]P[Phe(4-Cl)]-OH (SMILES CCCC[C@H](NC(=O)[C@@H]1CCCN1C(=O)CNC(=O)[C@H](CCCCN)NC(=O)[C@H](Cc1c[nH]cn1)NC(=O)[C@H](CO)NC(=O)[C@H](CC(C)C)NC(=O)[C@H](CCCNC(=N)N)N(C)C(=O)[C@H](CCCNC(=N)N)NC(=O)[C@H](CCC(N)=O)NC(C)=O)C(=O)N1CCC[C@H]1C(=O)N[C@@H](Cc1ccc(Cl)cc1)C(=O)O) [SEQ ID NO: 72] | 1.36 nM | 40.6 nM |
| {C12 diacid}-[γGlu][AEEA][AEEA]Q[hArg]P[dR][NMeL]SHKG[Oic][Phe(4-I)]P[dBip]-OH (SMILES CC(C)C[C@@H](C(=O)N[C@@H](CO)C(=O)N[C@@H](Cc1c[nH]cn1)C(=O)N[C@@H](CCCCN)C(=O)NCC(=O)N1[C@H](C(=O)N[C@@H](Cc2ccc(I)cc2)C(=O)N2CCC[C@H]2C(=O)N[C@H](Cc2ccc(-c3ccccc3)cc2)C(=O)O)C[C@@H]2CCCC[C@@H]21)N(C)C(=O)[C@@H](CCCNC(=N)N)NC(=O)[C@@H]1CCCN1C(=O)[C@H](CCCCNC(=N)N)NC(=O)[C@H](CCC(N)=O)NC(=O)COCCOCCNC(=O)COCCOCCNC(=O)CC[C@H](NC(=O)CCCCCCCCCCC(=O)O)C(=O)O) [SEQ ID NO: 349] | 64 nM | 47.8 nM |
| Ac-RQRPR[Cha]SHKGP[Nle]P[Phe(4-Cl)]-OH (SMILES CCCC[C@H](NC(=O)[C@@H]1CCCN1C(=O)CNC(=O)[C@H](CCCCN)NC(=O)[C@H](Cc1c[nH]cn1)NC(=O)[C@H](CO)NC(=O)[C@H](CC1CCCCC1)NC(=O)[C@H](CCCNC(=N)N)NC(=O)[C@@H]1CCCN1C(=O)[C@H](CCCNC(=N)N)NC(=O)[C@H](CCC(N)=O)NC(=O)[C@H](CCCNC(=N)N)NC(C)=O)C(=O)N1CCC[C@H]1C(=O)N[C@@H](Cc1ccc(Cl)cc1)C(=O)O) [SEQ ID NO: 63] | 0.036 nM | 0.164 nM |
| Ac-RQRP[NMeR]LSHKGP[Nle]P[Phe(4-Cl)]-OH (SMILES CCCC[C@H](NC(=O)[C@@H]1CCCN1C(=O)CNC(=O)[C@H](CCCCN)NC(=O)[C@H](Cc1c[nH]cn1)NC(=O)[C@H](CO)NC(=O)[C@H](CC(C)C)NC(=O)[C@H](CCCNC(=N)N)N(C)C(=O)[C@@H]1CCCN1C(=O)[C@H](CCCNC(=N)N)NC(=O)[C@H](CCC(N)=O)NC(=O)[C@H](CCCNC(=N)N)NC(C)=O)C(=O)N1CCC[C@H]1C(=O)N[C@@H](Cc1ccc(Cl)cc1)C(=O)O) [SEQ ID NO: 65] | 0.0302 nM | 0.122 nM |
| SDFYKRLINKAKXXRRQRPRLSHKGXFPX ({Acetyl-NH}SDFYKRLINKAK[Aeea][Aeea][hArg]rQ[hArg]Pr[NMeLeu]SHKG[Oic][pI-Phe]P[D-Bip]{COOH}) [SEQ ID NO: 94] | 1.34 nM | 1.33 nM |
| XXXQRPRLSHKGPXPF ({Dodecanoyl-NH}[AC4Abu][Aeea][Aeea]QRP[NMeArg]LSHKGP[Nle]P[4-Cl-F]{COOH}) [SEQ ID NO: 591] | 0.476 nM | 1.84 nM |
| Ac-RQRPRLSHKGP[Nle]P[dBip]-OH (SMILES CCCC[C@H](NC(=O)[C@@H]1CCCN1C(=O)CNC(=O)[C@H](CCCCN)NC(=O)[C@H](Cc1c[nH]cn1)NC(=O)[C@H](CO)NC(=O)[C@H](CC(C)C)NC(=O)[C@H](CCCNC(=N)N)NC(=O)[C@@H]1CCCN1C(=O)[C@H](CCCNC(=N)N)NC(=O)[C@H](CCC(N)=O)NC(=O)[C@H](CCCNC(=N)N)NC(C)=O)C(=O)N1CCC[C@H]1C(=O)N[C@H](Cc1ccc(-c2ccccc2)cc1)C(=O)O) [SEQ ID NO: 62] | 0.303 nM | 3.43 nM |
| Ac-RQRPR[NMeL]SHKGP[Nle]P[Phe(4-Cl)]-OH (SMILES CCCC[C@H](NC(=O)[C@@H]1CCCN1C(=O)CNC(=O)[C@H](CCCCN)NC(=O)[C@H](Cc1c[nH]cn1)NC(=O)[C@H](CO)NC(=O)[C@H](CC(C)C)N(C)C(=O)[C@H](CCCNC(=N)N)NC(=O)[C@@H]1CCCN1C(=O)[C@H](CCCNC(=N)N)NC(=O)[C@H](CCC(N)=O)NC(=O)[C@H](CCCNC(=N)N)NC(C)=O)C(=O)N1CCC[C@H]1C(=O)N[C@@H](Cc1ccc(Cl)cc1)C(=O)O) [SEQ ID NO: 64] | 0.0555 nM | 0.411 nM |
| QRPRXSHKGPXXF ({Acetyl-NH}qRP[NMeArg][Cha]SHKG[aMePro][Nle][Aib][4-Cl-F]{COOH}) [SEQ ID NO: 93] | 0.229 nM | 0.79 nM |
